The assay deals with T1, MS2 bacteriophage coat protein (bacteriophage MS2), P03612.
T1 chain: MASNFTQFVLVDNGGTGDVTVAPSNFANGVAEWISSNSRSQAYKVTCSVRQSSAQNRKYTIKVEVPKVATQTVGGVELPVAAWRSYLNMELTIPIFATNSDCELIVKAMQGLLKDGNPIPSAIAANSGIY
Briefly: SDS-PAGE with Western blot; 12.5% acrylamide gel, polyclonal anti-MS2 coat protein antibody; BL21(DE3) bacterial lysate; bands of 14 and 28 kDa. The settings on record: remark: other sources report otherwise. (In general: Immunoblotting shows a protein as a band on a membrane.)

B1: MS2 bacteriophage coat protein, P03612 1-130 (natural protein)
chain: T1 chain
Consider B1, for which the stoichiometry N (in general, the number of molecules, sites or subunits per partner or assembly) was 2.

The values above are taken from paper PMC8494748.
